Results taken from patent US8987424B2, “CA6 antigen-specific cytotoxic conjugate and methods of using the same” (ImmunoGen, Inc., priority 2003, dated 2015).

B1: DS6-DM1: muDS6 antibody modified with SPP and conjugated to the maytansinoid DM1 (conjugate)
VH: QAYLQQSGAELVRSGASVKMSCKASGYTFTSYNMHWVKQTPGQGLEWIGYIYPGNGATNYNQKFKGKATLTADPSSSTAYMQISSLTSEDSAVYFCARGDSVPFAYWGQGTLVTVSA
VL: QIVLTQSPAIMSASPGEKVTITCSAHSSVSFMHWFQQKPGTSPKLWIYSTSSLASGVPARFGGSGSGTSYSLTISRMEAEDAATYYCQQRSSFPLTFGAGTKLELKR
B2: DS6: murine anti-CA6 monoclonal antibody DS6 (ATCC deposit number PTA-4449) (antibody, V domains shown)
VH: B1 VH
VL: B1 VL

Columns and labels:
OVCAR5 tumor xenografts = assay: Subcutaneous OVCAR5 xenograft efficacy study; type: in vivo, SCID mice
Method: (§1) OVCAR5 (FIG. 26A and FIG. 26B), TOV-21 G (FIG. 26C and FIG. 26D), HPAC (FIG. 26E and FIG. 26F), and HeLa (FIG. 26G and FIG. 26H) cells were inoculated on day 0, and immunoconjugate treatments were given on day 6 and 13. PBS control animals were euthanized once tumor volumes exceeded 1000 mm^3. The conjugate was given at a dose of 600 μg/kg DM1, corresponding to an antibody concentration 27.7 mg/kg. Tumor volume (FIG. 26A, FIG. 26C, FIG. 26E, and FIG. 26G) and body weight (FIG. 26B, FIG. 26D, FIG. 26F, and FIG. 26H) of the mice were monitored during the course of the study.
(§2) muDS6-DM 1 activity was further tested on a panel of subcutaneous xenograft models (see FIG. 26). […] OVCAR5 cells and TOV-21 G are ovarian tumor cell lines; HPAC is a pancreatic tumor cell line; HeLa is a cervical tumor cell line. OVCAR5 and TOV-21G cells have low surface CA6 expression; HeLa cells have an intermediate level of surface CA6 expression; HPAC cells have a high CA6 density of surface expression. TOV-21G and HPAC cells are maytansine sensitive; OVCAR5 and HeLa cells are 2-7-fold less maytansine sensitive.
The 4 cell-lines were grown in vitro, collected, and 1×10^7 cells in a 100 μL of serum free medium were injected under the right shoulder of each mouse (6 mice per model) and allowed to grow for 6 days to an average tumor volume of 57.6±6.7 and 90.2±13.4 mm^3 for the test and control groups respectively of OVCAR5, 147.1±29.6 and 176.2±18.9 mm^3 for the test and control groups respectively of HPAC, 194.3±37.2 and 201.7±71.7 mm^3 for the test and control groups respectively of HeLa, and 96.6±22.8 and 155.6±13.4 mm^3 for the test and control groups respectively of TOV-21G, at which time drug treatment was initiated. For each model three control mice were treated with two weekly doses of PBS and three test mice were treated with two weekly doses of conjugate (600 μg/kg DM1) intravenously. Toxic responses were monitored daily during the treatment and tumor volumes and body weights were monitored throughout the study. […] The HeLa model had about a 3 week lag period before beginning exponential growth. […] For the TOV-21 G, HPAC, and HeLa models the mice remain tumor-free at day 61. In the OVCAR5 model tumors recurred at about day 45 after tumor inoculation. Thus, muDS6-DM1 treatment in this model results in a tumor growth delay of approximately 34 days. The growth delay is significant as OVCAR5 cells are less maytansine-sensitive and have low CA6 epitope expression. In models where either the CA6 epitope density is higher or the model has greater maytansine sensitivity, the tumor regression is more robust. It is important to note that only 2 doses were administered. […] It is likely that cures could be achieved with additional or higher conjugate doses.

TOV-21G tumor xenografts = assay: Subcutaneous TOV-21G xenograft efficacy study; type: in vivo, SCID mice
Method: as §1, §2
The 4 cell-lines were grown in vitro, collected, and 1×10^7 cells in a 100 μL of serum free medium were injected under the right shoulder of each mouse (6 mice per model) and allowed to grow for 6 days to an average tumor volume of 57.6±6.7 and 90.2±13.4 mm^3 for the test and control groups respectively of OVCAR5, 147.1±29.6 and 176.2±18.9 mm^3 for the test and control groups respectively of HPAC, 194.3±37.2 and 201.7±71.7 mm^3 for the test and control groups respectively of HeLa, and 96.6±22.8 and 155.6±13.4 mm^3 for the test and control groups respectively of TOV-21G, at which time drug treatment was initiated. For each model three control mice were treated with two weekly doses of PBS and three test mice were treated with two weekly doses of conjugate (600 μg/kg DM1) intravenously. Toxic responses were monitored daily during the treatment and tumor volumes and body weights were monitored throughout the study. […]

OVCAR5 IP tumors = assay: Intraperitoneal OVCAR5 tumor model; type: in vivo, SCID mice; details: 600 μg/kg DM1 weekly for 2 weeks
Method: Tumor cells were injected intraperitoneally on day 0, and immunoconjugate treatments were given on day 6 and 13. Animals were euthanized once body weight loss exceeded 20%.
Human ovarian cancer is largely a disease of the peritoneum. OVCAR5 cells grow aggressively as an intraperitoneal (IP) model in SCID mice forming tumor nodules and producing ascites in a manner similar to human disease. […] OVCAR5 cells were grown in vitro, harvested and 1×10^7 cells in 100 μL of serum free medium were injected intraperitoneally. Tumors were allowed to grow for 6 days at which time treatment was initiated. Mice were treated weekly for 2 weeks with either PBS or DS6-DM1 conjugate at a dose of 600 μg/kg DM1 and monitored for weight loss resulting from peritoneal disease. By day 28, the PBS group of mice had lost greater than 20% body weight and were euthanized. The treated group was sacrificed at day 45 after exceeding 20% body weight loss.

Caov-3 cells = assay: Indirect cell viability assay with anti-mouse IgG (H+L) DM1 conjugate; type: cell-based, human; details: without secondary conjugate
HeLa cells = assay: Flow cytometry binding assay; parameters: species or system human; details: HeLa
Method: Cells were maintained in a 37° C., 5% CO2 humidified incubator.
Cells ([…]) were incubated, on ice for 3-4 h, with serially diluted concentrations of the DS6 antibody prepared in FACS buffer (2% goat serum, RPMI) into 96-well plates. The cells were spun down in a table top centrifuge at 1500 rpm for 5 min at 4° C. After removing the media, the wells were then refilled with 150 μl of FACS buffer. The wash step was then repeated. FITC-labeled goat anti-mouse IgG (Jackson Immunoresearch) was diluted 1:100 to FACS buffer and incubated with the cells for 1 h on ice. The plate was covered in foil to prevent photobleaching of the signal. After two washes, the cells were fixed with 1% formaldehyde and analyzed on a flow cytometer.

[1] = 600 μg/kg DM1, two weekly doses
[2] = 600 μg/kg DM1 i.v., two weekly doses

Molecule | body weight (OVCAR5 tumor xenografts; [1]) | day of tumor recurrence after tumor inoculation (OVCAR5 tumor xenografts; [1]) [days] | tumor growth delay (OVCAR5 tumor xenografts; [1]) | tumor regression (OVCAR5 tumor xenografts; [2]) | body weight (TOV-21G tumor xenografts; [1]) | tumor status at day 61 (TOV-21G tumor xenografts; [1]) | tumor regression (TOV-21G tumor xenografts; [2]) | tumor growth delay (in words) (OVCAR5 IP tumors) | visible signs of toxicity (OVCAR5 IP tumors) | day of sacrifice after exceeding 20% body weight loss (OVCAR5 IP tumors; PBS group day 28) [days] | activity of naked antibody in cell cultures (Caov-3 cells) | MMF (average maximum relative mean fluorescence) (HeLa cells)
B1 | no weight loss was observed | ~45 | approximately 34 days | complete tumor regression in all mice | no weight loss was observed | tumor-free | complete tumor regression in all mice | able to delay tumor growth | no visible signs of toxicity | 45 |  | 
B2 |  |  |  |  |  |  |  |  |  |  | no proliferative or growth inhibitive activity | 242.50
